Measured values published in PMC12360793 (2025).
Where two headings read alike, the source gives them in different places.

How the values were obtained:
Test in all cases: BLI
[1] = molecular target: T1, biotinylated monomeric MOW15–22 RBD (MOW15–22 (bat MERSr-CoV sampled in …))
PnNL2018B S1-hFc [2] = molecular target: T2, PnNL2018B S1-hFc (PnNL2018B (bat MERSr-CoV sampled in …))
PnNL2018B S1-hFc [3] = molecular target: T2, PnNL2018B S1-hFc; remark: listed apart in the source
[4] = molecular target: T1, biotinylated monomeric MOW15–22 RBD; remark: listed apart in the source

B1: monomeric P.dav ACE2 ectodomain (residues 17–613, avi-His8) (domain or fragment)
chain: AQSTTEELAKTFLEKFNHEAEELSYQSSLASWNYNTNITDENVQKMNEAGAKWSAFYEEQSKLAKTYPLAEIHNTTVKRQLQALQQSGSSVLSADKSQRLNTILNAMSTIYSTGKACNPNNPQECLLLEPGLDDIMENSKDYNERLWAWEGWRAEVGKQLRPLYEEYVALKNEMARANNYEDYGDYWRGDYEEEWTDGYNYSRSQLIKDVEHTFTQIKPLYQHLHAYVRAKLMDTYPSRISPTGCLPAHLLGDMWGRFWTNLYPLTVPFGQKPNIDVTDAMVNQSWDARRIFKEAEKFFVSVGLPNMTQGFWENSMLTEPGDSRKVVCHPTAWDLGKGDFRIKMCTKVTMDDFLTAHHEMGHIQYDMAYAVQPFLLRNGANEGFHEAVGEIMSLSAATPNHLKTIGLLSPGFSEDSETEINFLLKQALTIVGTLPFTYMLEKWRWMVFKGEIPKEQWMQKWWEMKREIVGVVEPVPHDETYCDPASLFHVANDYSFIRYYTRTIYQFQFQEALCRIAKHEGPLHKCDISNSSEAGKKLLQMLTLGKSKPWTLALEHVVGEKKMNVTPLLKYFEPLFTWLKEQNRNSFVGWNTDWRPY
B1 gave a koff [1] of 0.0567 s⁻¹.

B2: soluble dimeric P.nat ACE2 ectodomain (residues 18–739, twin-strep-3×FLAG) (domain or fragment)
chain: QSLTTEEKAREFLDKFNSEAENWSHESALASWDYNTNINDKNAQKMNEADSKWSAFYKEHSKLAQGFPLQEIQNSTIKLQLQILQQNGSSVLTAEKSKRLSTILTTMSTIYSTGKVCNPNNPQQCFTLSGLEDIMEKSKDYHQRLWIWEGWRSEVGKQLRPLYEEYVALKNEMARGNNYKDYGDYWRGDYETEGGDGYNYSRNHLIEDVDRIFLEIKPLYEQLHAYVRAKLMNAYPSRISPTGCLPAHLLGDMWGRFWTNLYNLTVPFEKKQNIDVTDTMKKQSWDAEKIFKEAEKFYLSVGLHNMTPEFWNNSMLTEPSDGRQVVCHPTAWDLGKNDFRIKMCTKVTMDDFLTAHHEMGHIQYDMAYAKQPYLLRNGANEGFHEAVGEVMSLSVATPKHLKGMGLLPSNFSEDCETEINFLLKQALNIVGTLPFTYMLEKWRWMVFEGKIPKEQWMEKWWEMKREIVGVVEPLPHDETYCDPASLFHVANDYSFIRYFTRTILEFQFQEALCQIANHTGPLHKCDISNSTEAGKQLKNMLELGKSKPWTFALEQIARTKEMDAKPLLNYFKPLFSWLKEQNGNSVGWSADWSPYSEQSIKVRISLKSALGEKAYEWNDNEMYLFRSSVAYAMRVYFLKVKNETIPFRAEDVWVSDEKIRVSFKFFVTSPTNVSDIIPRSEVEDAIRMSRGRINDAFRLDDKTLEFLGIQPTLGPPYQPPVT
Work on B2 yielded a Kd (PnNL2018B S1-hFc [2]) of 183 nM and a koff (PnNL2018B S1-hFc [2]) of 0.00727 s⁻¹.

B3: soluble dimeric P.nat.M1 ACE2 ectodomain (twin-strep-3×FLAG) (domain or fragment)
chain: QSLTTEEKAREFLDKFNSEAENWSHESALASWDYNTNINDKNAQKMNEADSKWSAFYKEHSKLAQGFPLQEIQNSTIKLQLQILQQNGSSVLTAEKSKRLSTILTTMSTIYSTGKVCNPNNPQQCFTLSGLEDIMEKSKDYHQRLWIWEGWRSEVGKQLRPLYEEYVALKNEMARGNNYKDYGDYWRGDYETEGGDGYNYSRNHLIEDVDRIFLEIKPLYEQLHAYVRAKLMNAYPSRISPTGCLPAHLLGDMWGRFWTNLYNLTVPFEKKQNIDVTDTMKKQSWDAEKIFKEAEKFYLSVGLHNMTPEFWNNSMLTEPSDGRQVVCHPTAWDLGKNDFRIKMCTKVTMDDFLTAHHEMGHIQYDMAYAKQPYLLRNGANEGFHEAVGEIMSLSAATPKHLKDLGLLAQNYPEDYETEINFLLKQALNIVGTLPFTYMLEKWRWMVFEGKIPKEQWMEKWWEMKREIVGVVEPLPHDETYCDPASLFHVANDYSFIRYFTRTILEFQFQEALCQIANHTGPLHKCDISNSTEAGKQLKNMLELGKSKPWTFALEQIARTKEMDAKPLLNYFKPLFSWLKEQNGNSVGWSADWSPYSEQSIKVRISLKSALGEKAYEWNDNEMYLFRSSVAYAMRVYFLKVKNETIPFRAEDVWVSDEKIRVSFKFFVTSPTNVSDIIPRSEVEDAIRMSRGRINDAFRLDDKTLEFLGIQPTLGPPYQPPVT
For B3, the Kd (PnNL2018B S1-hFc [3]) was 16.9 nM and the koff (PnNL2018B S1-hFc [3]) was 0.00179 s⁻¹.

B4: dimeric P.dav ACE2 ectodomain (residues 17–728, avi-His8) (domain or fragment)
chain: AQSTTEELAKTFLEKFNHEAEELSYQSSLASWNYNTNITDENVQKMNEAGAKWSAFYEEQSKLAKTYPLAEIHNTTVKRQLQALQQSGSSVLSADKSQRLNTILNAMSTIYSTGKACNPNNPQECLLLEPGLDDIMENSKDYNERLWAWEGWRAEVGKQLRPLYEEYVALKNEMARANNYEDYGDYWRGDYEEEWTDGYNYSRSQLIKDVEHTFTQIKPLYQHLHAYVRAKLMDTYPSRISPTGCLPAHLLGDMWGRFWTNLYPLTVPFGQKPNIDVTDAMVNQSWDARRIFKEAEKFFVSVGLPNMTQGFWENSMLTEPGDSRKVVCHPTAWDLGKGDFRIKMCTKVTMDDFLTAHHEMGHIQYDMAYAVQPFLLRNGANEGFHEAVGEIMSLSAATPNHLKTIGLLSPGFSEDSETEINFLLKQALTIVGTLPFTYMLEKWRWMVFKGEIPKEQWMQKWWEMKREIVGVVEPVPHDETYCDPASLFHVANDYSFIRYYTRTIYQFQFQEALCRIAKHEGPLHKCDISNSSEAGKKLLQMLTLGKSKPWTLALEHVVGEKKMNVTPLLKYFEPLFTWLKEQNRNSFVGWNTDWRPYADQSIKVRISLKSALGDEAYEWNDNEMYLFRSSVAYAMREYFSKVKNQTIPFVEDNVWVSNLKPRISFNFFVTASKNVSDVIPRSEVEEAIRMSRSRINDAFRLDDNSLEFLGIQ
In the case of B4, the koff [1] is reported as 0.000712 s⁻¹.

B5: dimeric P.nat ACE2 ectodomain (residues 17–729, avi-His8) (domain or fragment)
chain: AQSLTTEEKAREFLDKFNSEAENWSHESALASWDYNTNINDKNAQKMNEADSKWSAFYKEHSKLAQGFPLQEIQNSTIKLQLQILQQNGSSVLTAEKSKRLSTILTTMSTIYSTGKVCNPNNPQQCFTLSGLEDIMEKSKDYHQRLWIWEGWRSEVGKQLRPLYEEYVALKNEMARGNNYKDYGDYWRGDYETEGGDGYNYSRNHLIEDVDRIFLEIKPLYEQLHAYVRAKLMNAYPSRISPTGCLPAHLLGDMWGRFWTNLYNLTVPFEKKQNIDVTDTMKKQSWDAEKIFKEAEKFYLSVGLHNMTPEFWNNSMLTEPSDGRQVVCHPTAWDLGKNDFRIKMCTKVTMDDFLTAHHEMGHIQYDMAYAKQPYLLRNGANEGFHEAVGEVMSLSVATPKHLKGMGLLPSNFSEDCETEINFLLKQALNIVGTLPFTYMLEKWRWMVFEGKIPKEQWMEKWWEMKREIVGVVEPLPHDETYCDPASLFHVANDYSFIRYFTRTILEFQFQEALCQIANHTGPLHKCDISNSTEAGKQLKNMLELGKSKPWTFALEQIARTKEMDAKPLLNYFKPLFSWLKEQNGNSVGWSADWSPYSEQSIKVRISLKSALGEKAYEWNDNEMYLFRSSVAYAMRVYFLKVKNETIPFRAEDVWVSDEKIRVSFKFFVTSPTNVSDIIPRSEVEDAIRMSRGRINDAFRLDDKTLEFLGIQPT
Binder B5 has a koff [4] of 0.000301 s⁻¹.
